Assay results from the supplement of paper PMC10567573.

B1: NET1 (parent)
chain: IKRTIRVLDVNNQSFREQEEPSNK

Variants of: B1
Test: protein stability index of a GFP-peptide fusion (GPS, HEK-293T) (PSI 1-6); higher = more stable
Conditions: c terminus: a fixed tail appended
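Also: lentivirally expressed fusions sorted by FACS into six bins by GFP to DsRed ratio, PSI derived from sequencing read proportions per bin multiplied by bin number.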

Variant	protein stability index
IKRTIRVLDVNNQSFREQENPSNK	3.52
IKRTIRVLDVNNQSFREQEFPSNK	2.97
IKRTIRVLDVNNQSFREQEKPSNK	2.9
IKRTIRVLDVNNQSFREQEDPSNK	3.23
IKRTIRVLDVNNQSFREQESPSNK	3.57
IKRTIRVLDVNNQSFREQEPPSNK	3.33
IKRTIRVLDVNNQSFREQERPSNK	2.93
IKRTIRVLDVNNQSFREQEAPSNK	3.69
IKRTIRVLDVNNQSFREQEGPSNK	3.19
IKRTIRVLDVNNQSFREQEQPSNK	2.8
IKRTIRVLDVNNQSFREQEIPSNK	3.37
IKRTIRVLDVNNQSFREQEVPSNK	3.04
IKRTIRVLDVNNQSFREQETPSNK	3.41
IKRTIRVLDVNNQSFREQEMPSNK	3.16
IKRTIRVLDVNNQSFREQECPSNK	3.27
IKRTIRVLDVNNQSFREQEHPSNK	3.05
IKRTIRVLDVNNQSFREQELPSNK	3.16
IKRTIRVLDVNNQSFREQQEPSNK	2.76
IKRTIRVLDVNNQSFREQVEPSNK	2.68
IKRTIRVLDVNNQSFREQREPSNK	2.6
IKRTIRVLDVNNQSFREQGEPSNK	4.21
IKRTIRVLDVNNQSFREQAEPSNK	2.57
IKRTIRVLDVNNQSFREQIEPSNK	2.38
IKRTIRVLDVNNQSFREQKEPSNK	3.88

Variant	protein stability index
IKRTIRVLDVNNQSFREQPEPSNK	3.44
IKRTIRVLDVNNQSFREQYEPSNK	2.43
IKRTIRVLDVNNQSFREQSEPSNK	2.44
IKRTIRVLDVNNQSFREQTEPSNK	3.34
IKRTIRVLDVNNQSFREQLEPSNK	2.27
IKRTIRVLDVNNQSFREQHEPSNK	2.9
IKRTIRVLDVNNQSFREQWEPSNK	1.75
IKRTIRVLDVNNQSFREQCEPSNK	2.74
IKRTIRVLDVNNQSFREQNEPSNK	2.89
IKRTIRVLDVNNQSFREQFEPSNK	2.15
IKRTIRVLDVNNQSFREQMEPSNK	3.15
IKRTIRVLDVNNQSFREQDEPSNK	2.84
IKRTIRVLDVNNQSWREQEEPSNK	3.6
IKRTIRVLDVNNQSYREQEEPSNK	3.79
IKRTIRVLDVNNQSFIEQEEPSNK	3.83
IKRTIRVLDVNNQSFHEQEEPSNK	3.69
IKRTIRVLDVNNQSFGEQEEPSNK	3.94
IKRTIRVLDVNNQSFWEQEEPSNK	2.07
IKRTIRVLDVNNQSFDEQEEPSNK	4.47
IKRTIRVLDVNNQSFFEQEEPSNK	3.47
IKRTIRVLDVNNQSFNEQEEPSNK	4.57
IKRTIRVLDVNNQSFMEQEEPSNK	3.41
IKRTIRVLDVNNQSFKEQEEPSNK	4.21
IKRTIRVLDVNNQSFPEQEEPSNK	3.42

Variant	protein stability index
IKRTIRVLDVNNQSFVEQEEPSNK	3.96
IKRTIRVLDVNNQSFYEQEEPSNK	3.4
IKRTIRVLDVNNQSFTEQEEPSNK	3.85
IKRTIRVLDVNNQSFLEQEEPSNK	3.35
IKRTIRVLDVNNQSFCEQEEPSNK	3.3
IKRTIRVLDVNNQSFEEQEEPSNK	3.94
IKRTIRVLDVNNQSFSEQEEPSNK	4.06
IKRTIRVLDVNNQSFQEQEEPSNK	3.43
IKRTIRVLDVNNQSFAEQEEPSNK	4
IKRTIRVLDVNNQSFRYQEEPSNK	2.44
IKRTIRVLDVNNQSFRSQEEPSNK	3.16
IKRTIRVLDVNNQSFRQQEEPSNK	3.14
IKRTIRVLDVNNQSFRCQEEPSNK	3.27
IKRTIRVLDVNNQSFRTQEEPSNK	3.03
IKRTIRVLDVNNQSFRNQEEPSNK	3.16
IKRTIRVLDVNNQSFRVQEEPSNK	2.8
IKRTIRVLDVNNQSFRKQEEPSNK	3.11
IKRTIRVLDVNNQSFRAQEEPSNK	3.6
IKRTIRVLDVNNQSFRFQEEPSNK	2.8
IKRTIRVLDVNNQSFRMQEEPSNK	2.92
IKRTIRVLDVNNQSFRGQEEPSNK	3.29
IKRTIRVLDVNNQSFRIQEEPSNK	3.22
IKRTIRVLDVNNQSFRHQEEPSNK	3.59
IKRTIRVLDVNNQSFRDQEEPSNK	3.25

Variant	protein stability index
IKRTIRVLDVNNQSFRWQEEPSNK	1.74
IKRTIRVLDVNNQSFRRQEEPSNK	3.42
IKRTIRVLDVNNQSFRLQEEPSNK	3.15
IKRTIRVLDVNNQSFRPQEEPSNK	2.92
IKRTIRVLDVNNQSFREVEEPSNK	3.43
IKRTIRVLDVNNQSFREGEEPSNK	3.59
IKRTIRVLDVNNQSFREHEEPSNK	3.7
IKRTIRVLDVNNQSFREPEEPSNK	3.49
IKRTIRVLDVNNQSFRENEEPSNK	3.52
IKRTIRVLDVNNQSFRELEEPSNK	3.06
IKRTIRVLDVNNQSFREEEEPSNK	3.76
IKRTIRVLDVNNQSFREAEEPSNK	2.27
IKRTIRVLDVNNQSFREIEEPSNK	3.1
IKRTIRVLDVNNQSFREREEPSNK	3.1
IKRTIRVLDVNNQSFREKEEPSNK	2.91
IKRTIRVLDVNNQSFREYEEPSNK	2.66
IKRTIRVLDVNNQSFREDEEPSNK	4.15
IKRTIRVLDVNNQSFREMEEPSNK	3.07
IKRTIRVLDVNNQSFRECEEPSNK	3.09
IKRTIRVLDVNNQSFREFEEPSNK	2.52
IKRTIRVLDVNNQSFRETEEPSNK	3.37
IKRTIRVLDVNNQSFRESEEPSNK	2.79
